Data as given in PMC10995120.

Target: GFP-CD16a (Homo sapiens) (UniProt P08637)
Experiment: SPR

Sequence of UniProt P08637 (P08637 other isoform, or with tags, fused parts or gaps): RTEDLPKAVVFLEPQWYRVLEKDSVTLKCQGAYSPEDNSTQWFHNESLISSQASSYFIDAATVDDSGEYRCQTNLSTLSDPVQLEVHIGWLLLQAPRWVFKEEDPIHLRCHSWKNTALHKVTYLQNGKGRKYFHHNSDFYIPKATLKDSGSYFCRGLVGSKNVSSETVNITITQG

rituximab
Kd: 0.36 µM
